# Numbered stars: 1 amine (or outer) side, 2 acyl side, 3 side chain; on linkers, the order of the positions; unused ones are H or OH. Bridge positions count the residues as written; N and C are the ends. Side chains are listed from the residue outwards. Ends that are not written are not given here. * marks the point of attachment. C20 diacid = O=C(O)CCCCCCCCCCCCCCCCCCC(=O)*; γGlu = O=C(O)[C@H](CCC(=O)[*:2])N[*:1]; AEEA = NCCOCCOCC(=O)O
# T1: human amylin receptor (amylin 3(a) receptor: human calcitonin receptor co-expressed with RAMP-3) (human, UniProt P30988 25-474; O60896 24-148, limits assumed)
# T1 sequence (looked up) 1: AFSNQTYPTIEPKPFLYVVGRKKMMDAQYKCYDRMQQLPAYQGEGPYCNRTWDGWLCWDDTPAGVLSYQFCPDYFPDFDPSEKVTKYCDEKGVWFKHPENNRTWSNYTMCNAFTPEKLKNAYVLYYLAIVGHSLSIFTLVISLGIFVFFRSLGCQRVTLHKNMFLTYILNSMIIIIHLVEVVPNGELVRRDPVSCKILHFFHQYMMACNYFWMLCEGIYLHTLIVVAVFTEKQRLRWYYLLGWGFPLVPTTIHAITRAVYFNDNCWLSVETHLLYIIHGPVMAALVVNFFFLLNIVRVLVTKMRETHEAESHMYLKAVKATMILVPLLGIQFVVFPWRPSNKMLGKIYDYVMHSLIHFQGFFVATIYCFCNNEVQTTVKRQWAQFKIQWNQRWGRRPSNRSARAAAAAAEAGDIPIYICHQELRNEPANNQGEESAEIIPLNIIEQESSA
# T1 sequence (looked up) 2: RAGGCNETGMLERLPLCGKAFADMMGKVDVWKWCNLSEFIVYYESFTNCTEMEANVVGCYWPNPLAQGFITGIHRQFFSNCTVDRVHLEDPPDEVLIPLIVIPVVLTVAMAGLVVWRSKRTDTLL
# T2: human calcitonin receptor (human, UniProt P30988 25-474)
# T2 sequence (looked up): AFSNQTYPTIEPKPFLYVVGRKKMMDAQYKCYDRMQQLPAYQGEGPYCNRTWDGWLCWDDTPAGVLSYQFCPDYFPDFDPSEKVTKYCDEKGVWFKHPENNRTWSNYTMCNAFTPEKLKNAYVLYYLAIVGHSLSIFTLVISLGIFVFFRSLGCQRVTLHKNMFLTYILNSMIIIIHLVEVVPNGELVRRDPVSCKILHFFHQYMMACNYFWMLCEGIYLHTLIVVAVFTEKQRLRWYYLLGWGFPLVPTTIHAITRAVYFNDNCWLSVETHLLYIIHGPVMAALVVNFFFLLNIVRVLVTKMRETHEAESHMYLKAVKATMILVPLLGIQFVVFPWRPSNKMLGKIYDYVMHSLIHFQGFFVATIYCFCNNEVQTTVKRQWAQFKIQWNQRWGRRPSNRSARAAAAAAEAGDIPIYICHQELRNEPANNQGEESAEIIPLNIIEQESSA
# Columns and labels:
# [1] = biological target: T1, human amylin receptor (amylin 3(a) …); assay: cell-based or functional assay
# [2] = biological target: T2, human calcitonin receptor; assay: cell-based or functional assay
hAmylin-R funct. EC50 [1] [nM],Ratio hCT/hAmylin funct. (hCTR EC50 against hAmylin-R EC50) [2],hCTR funct. EC50 [2] [nM],Binder
0.047,21.9,1.03,"K([AEEA-γGlu-C20 diacid])CNTATCATQRLANFLRHSSPNFGAIPSSTNVGPHTY-NH2 (disulfide 2-7; N-terminus assumed; SMILES CC[C@H](C)[C@H](NC(=O)[C@H](C)NC(=O)CNC(=O)[C@H](Cc1ccccc1)NC(=O)[C@H](CC(N)=O)NC(=O)[C@@H]1CCCN1C(=O)[C@H](CO)NC(=O)[C@H](CO)NC(=O)[C@H](Cc1c[nH]cn1)NC(=O)[C@H](CCCNC(=N)N)NC(=O)[C@H](CC(C)C)NC(=O)[C@H](Cc1ccccc1)NC(=O)[C@H](CC(N)=O)NC(=O)[C@H](C)NC(=O)[C@H](CC(C)C)NC(=O)[C@H](CCCNC(=N)N)NC(=O)[C@H](CCC(N)=O)NC(=O)[C@@H](NC(=O)[C@H](C)NC(=O)[C@@H]1CSSC[C@H](NC(=O)[C@@H](N)CCCCNC(=O)COCCOCCNC(=O)CC[C@H](NC(=O)CCCCCCCCCCCCCCCCCCC(=O)O)C(=O)O)C(=O)N[C@@H](CC(N)=O)C(=O)N[C@@H]([C@@H](C)O)C(=O)N[C@@H](C)C(=O)N[C@@H]([C@@H](C)O)C(=O)N1)[C@@H](C)O)C(=O)N1CCC[C@H]1C(=O)N[C@@H](CO)C(=O)N[C@@H](CO)C(=O)N[C@H](C(=O)N[C@@H](CC(N)=O)C(=O)N[C@H](C(=O)NCC(=O)N1CCC[C@H]1C(=O)N[C@@H](Cc1c[nH]cn1)C(=O)N[C@H](C(=O)N[C@@H](Cc1ccc(O)cc1)C(N)=O)[C@@H](C)O)C(C)C)[C@@H](C)O, also called compound 58)"
0.038,17.4,0.662,"K([AEEA-γGlu-C20 diacid])CNTATCATQRLANFLRHSSPNFGAIPSSTNVGPNTY-NH2 (disulfide 2-7; N-terminus assumed; SMILES CC[C@H](C)[C@H](NC(=O)[C@H](C)NC(=O)CNC(=O)[C@H](Cc1ccccc1)NC(=O)[C@H](CC(N)=O)NC(=O)[C@@H]1CCCN1C(=O)[C@H](CO)NC(=O)[C@H](CO)NC(=O)[C@H](Cc1c[nH]cn1)NC(=O)[C@H](CCCNC(=N)N)NC(=O)[C@H](CC(C)C)NC(=O)[C@H](Cc1ccccc1)NC(=O)[C@H](CC(N)=O)NC(=O)[C@H](C)NC(=O)[C@H](CC(C)C)NC(=O)[C@H](CCCNC(=N)N)NC(=O)[C@H](CCC(N)=O)NC(=O)[C@@H](NC(=O)[C@H](C)NC(=O)[C@@H]1CSSC[C@H](NC(=O)[C@@H](N)CCCCNC(=O)COCCOCCNC(=O)CC[C@H](NC(=O)CCCCCCCCCCCCCCCCCCC(=O)O)C(=O)O)C(=O)N[C@@H](CC(N)=O)C(=O)N[C@@H]([C@@H](C)O)C(=O)N[C@@H](C)C(=O)N[C@@H]([C@@H](C)O)C(=O)N1)[C@@H](C)O)C(=O)N1CCC[C@H]1C(=O)N[C@@H](CO)C(=O)N[C@@H](CO)C(=O)N[C@H](C(=O)N[C@@H](CC(N)=O)C(=O)N[C@H](C(=O)NCC(=O)N1CCC[C@H]1C(=O)N[C@@H](CC(N)=O)C(=O)N[C@H](C(=O)N[C@@H](Cc1ccc(O)cc1)C(N)=O)[C@@H](C)O)C(C)C)[C@@H](C)O, also called compound 50)"

# Continued, binder first:
Binder,hAmylin-R funct. EC50 [1] [nM],Ratio hCT/hAmylin funct. (hCTR EC50 against hAmylin-R EC50) [2],hCTR funct. EC50 [2] [nM]
"K([AEEA-γGlu-C20 diacid])CNTATCATQRLANFLRHSSPNFGAIPSPTPVGSNTY-NH2 (disulfide 2-7; N-terminus assumed; SMILES CC[C@H](C)[C@H](NC(=O)[C@H](C)NC(=O)CNC(=O)[C@H](Cc1ccccc1)NC(=O)[C@H](CC(N)=O)NC(=O)[C@@H]1CCCN1C(=O)[C@H](CO)NC(=O)[C@H](CO)NC(=O)[C@H](Cc1c[nH]cn1)NC(=O)[C@H](CCCNC(=N)N)NC(=O)[C@H](CC(C)C)NC(=O)[C@H](Cc1ccccc1)NC(=O)[C@H](CC(N)=O)NC(=O)[C@H](C)NC(=O)[C@H](CC(C)C)NC(=O)[C@H](CCCNC(=N)N)NC(=O)[C@H](CCC(N)=O)NC(=O)[C@@H](NC(=O)[C@H](C)NC(=O)[C@@H]1CSSC[C@H](NC(=O)[C@@H](N)CCCCNC(=O)COCCOCCNC(=O)CC[C@H](NC(=O)CCCCCCCCCCCCCCCCCCC(=O)O)C(=O)O)C(=O)N[C@@H](CC(N)=O)C(=O)N[C@@H]([C@@H](C)O)C(=O)N[C@@H](C)C(=O)N[C@@H]([C@@H](C)O)C(=O)N1)[C@@H](C)O)C(=O)N1CCC[C@H]1C(=O)N[C@@H](CO)C(=O)N1CCC[C@H]1C(=O)N[C@H](C(=O)N1CCC[C@H]1C(=O)N[C@H](C(=O)NCC(=O)N[C@@H](CO)C(=O)N[C@@H](CC(N)=O)C(=O)N[C@H](C(=O)N[C@@H](Cc1ccc(O)cc1)C(N)=O)[C@@H](C)O)C(C)C)[C@@H](C)O, also called compound 54)",0.103,9.6,0.987
"K([AEEA-γGlu-C20 diacid])CNTATCATQRLANFLRHSSPNFGAIPSSTPVGSHTY-NH2 (disulfide 2-7; N-terminus assumed; SMILES CC[C@H](C)[C@H](NC(=O)[C@H](C)NC(=O)CNC(=O)[C@H](Cc1ccccc1)NC(=O)[C@H](CC(N)=O)NC(=O)[C@@H]1CCCN1C(=O)[C@H](CO)NC(=O)[C@H](CO)NC(=O)[C@H](Cc1c[nH]cn1)NC(=O)[C@H](CCCNC(=N)N)NC(=O)[C@H](CC(C)C)NC(=O)[C@H](Cc1ccccc1)NC(=O)[C@H](CC(N)=O)NC(=O)[C@H](C)NC(=O)[C@H](CC(C)C)NC(=O)[C@H](CCCNC(=N)N)NC(=O)[C@H](CCC(N)=O)NC(=O)[C@@H](NC(=O)[C@H](C)NC(=O)[C@@H]1CSSC[C@H](NC(=O)[C@@H](N)CCCCNC(=O)COCCOCCNC(=O)CC[C@H](NC(=O)CCCCCCCCCCCCCCCCCCC(=O)O)C(=O)O)C(=O)N[C@@H](CC(N)=O)C(=O)N[C@@H]([C@@H](C)O)C(=O)N[C@@H](C)C(=O)N[C@@H]([C@@H](C)O)C(=O)N1)[C@@H](C)O)C(=O)N1CCC[C@H]1C(=O)N[C@@H](CO)C(=O)N[C@@H](CO)C(=O)N[C@H](C(=O)N1CCC[C@H]1C(=O)N[C@H](C(=O)NCC(=O)N[C@@H](CO)C(=O)N[C@@H](Cc1c[nH]cn1)C(=O)N[C@H](C(=O)N[C@@H](Cc1ccc(O)cc1)C(N)=O)[C@@H](C)O)C(C)C)[C@@H](C)O, also called compound 57)",0.089,35,3.12
"K([AEEA-γGlu-C20 diacid])CNTATCATQRLANFLRHSSPNFGAIPSSTPVGSNTY-NH2 (disulfide 2-7; N-terminus assumed; SMILES CC[C@H](C)[C@H](NC(=O)[C@H](C)NC(=O)CNC(=O)[C@H](Cc1ccccc1)NC(=O)[C@H](CC(N)=O)NC(=O)[C@@H]1CCCN1C(=O)[C@H](CO)NC(=O)[C@H](CO)NC(=O)[C@H](Cc1c[nH]cn1)NC(=O)[C@H](CCCNC(=N)N)NC(=O)[C@H](CC(C)C)NC(=O)[C@H](Cc1ccccc1)NC(=O)[C@H](CC(N)=O)NC(=O)[C@H](C)NC(=O)[C@H](CC(C)C)NC(=O)[C@H](CCCNC(=N)N)NC(=O)[C@H](CCC(N)=O)NC(=O)[C@@H](NC(=O)[C@H](C)NC(=O)[C@@H]1CSSC[C@H](NC(=O)[C@@H](N)CCCCNC(=O)COCCOCCNC(=O)CC[C@H](NC(=O)CCCCCCCCCCCCCCCCCCC(=O)O)C(=O)O)C(=O)N[C@@H](CC(N)=O)C(=O)N[C@@H]([C@@H](C)O)C(=O)N[C@@H](C)C(=O)N[C@@H]([C@@H](C)O)C(=O)N1)[C@@H](C)O)C(=O)N1CCC[C@H]1C(=O)N[C@@H](CO)C(=O)N[C@@H](CO)C(=O)N[C@H](C(=O)N1CCC[C@H]1C(=O)N[C@H](C(=O)NCC(=O)N[C@@H](CO)C(=O)N[C@@H](CC(N)=O)C(=O)N[C@H](C(=O)N[C@@H](Cc1ccc(O)cc1)C(N)=O)[C@@H](C)O)C(C)C)[C@@H](C)O, also called compound 49)",0.106,22.5,2.39
"K([AEEA-γGlu-C20 diacid])CNTATCATQRLANFLRHSSPNFGAIPSPTNVGPNTY-NH2 (disulfide 2-7; N-terminus assumed; SMILES CC[C@H](C)[C@H](NC(=O)[C@H](C)NC(=O)CNC(=O)[C@H](Cc1ccccc1)NC(=O)[C@H](CC(N)=O)NC(=O)[C@@H]1CCCN1C(=O)[C@H](CO)NC(=O)[C@H](CO)NC(=O)[C@H](Cc1c[nH]cn1)NC(=O)[C@H](CCCNC(=N)N)NC(=O)[C@H](CC(C)C)NC(=O)[C@H](Cc1ccccc1)NC(=O)[C@H](CC(N)=O)NC(=O)[C@H](C)NC(=O)[C@H](CC(C)C)NC(=O)[C@H](CCCNC(=N)N)NC(=O)[C@H](CCC(N)=O)NC(=O)[C@@H](NC(=O)[C@H](C)NC(=O)[C@@H]1CSSC[C@H](NC(=O)[C@@H](N)CCCCNC(=O)COCCOCCNC(=O)CC[C@H](NC(=O)CCCCCCCCCCCCCCCCCCC(=O)O)C(=O)O)C(=O)N[C@@H](CC(N)=O)C(=O)N[C@@H]([C@@H](C)O)C(=O)N[C@@H](C)C(=O)N[C@@H]([C@@H](C)O)C(=O)N1)[C@@H](C)O)C(=O)N1CCC[C@H]1C(=O)N[C@@H](CO)C(=O)N1CCC[C@H]1C(=O)N[C@H](C(=O)N[C@@H](CC(N)=O)C(=O)N[C@H](C(=O)NCC(=O)N1CCC[C@H]1C(=O)N[C@@H](CC(N)=O)C(=O)N[C@H](C(=O)N[C@@H](Cc1ccc(O)cc1)C(N)=O)[C@@H](C)O)C(C)C)[C@@H](C)O, also called compound 56)",0.102,5,0.506

# Source: patent US20140087995A1 (published 2014)
